From paper PMC8542387 (2021)

B1: Mip1-myc (wild type) [S. pombe] / FLAG-tagged Tor2 kinase [S. pombe] (parent complex)
chain 1: MNDRISEVSGSSRARRSVLSYGTTETGSDRYTENSNIATENGVDTASSMIDGIQSGFPQPRHGFEEEYNNAEYINMLEQVFYMYYTDKRHRGVISKKNAEPTETIHDWRMRERLKTVSAALLVCLNIGVDPPDVIKPNPAAKYECWIDPFSLPASKALEAIGKNLQQQYETLSMRTRYRHYLDPAIEEVKKLCIGQRRNAKEERILFHYNGHGVPMPTASGEIWVFNKNYTQYIPVSLYDLQSWLGAPCIYVYDCSAAGNIIVNFNRFAEQRDKEALRIAKQNPNVLAMPSHTSCIQLAACGPKETLPMNPDLPADLFTSCLTSPIEISVRWYVLQNPFPNKLNLNMLLKIPGRLQDRRTPLGELNWIFTAITDTIAWNVFPKHLFRRLFRQDLMVAALFRNFLLAERIMLVHSCHPQSSPELPPTHDHPMWNSWDLAIDNCLSQLPDMLDAESKGIAYEYKHSTFFSEQLTAFEVWLSQGLISRKPPDQLPLVLQVLLSQVHRLRALILLSKFLDLGVWAVDLALSIGIFPYVLKLLQSPAIELKPVLVFIWARILAVDDSCQADLLKDNGYGYFVQILNPNSSIFPSSNISEHRAMCAFILSVFCRGFPQGQLACLNPQVLSHCLSHLNSPDSLLRQWACLCISQLWENYSEAKWSGTRDNAHVKLAEIIVDSVPEVRASVLTAFTTFLGFPEKTEEVVAVETYIAIAALAALSDASPLVRHELVIFLSHFVVNYKKQLMVVAYESSLADILEKKNHNSISASTIYETVWQAVLVLAADPSIEISLAAEAIINYVYQSMLNSELRESFLAFLLQHLPALHKASLSKDTDTNSVTSDPKPHPFVPSVSENKILNRSFSLTRSLKGLALSLAGSDRASELLSLNGENKPAESNLNHLTSAKVPGPPAFNELEYQSELDMPLTSYLFDWSRKYFTEPQMRPNEDDEPGSICYNQRLWRRNRNEKLIYRTRPLAEYSTNGRWNQQLMTFNNTIAPRKLMFHQFEDQLITLGDKDIIQVWDWRRNRCLNSFKTSASATTNVTDMQLLNEDDVALLMTGSSDGTIKLYRDYENEKVELVTSWNSLSDLVFGDRNASLLMSWQQNCGHLLVAGDVRVIRIWDASKEICYANLPVRSSNSITSLTSDLVGCNIIVAGFSDGVLRVYDKRLPARDSLTDVWKEHSSEIVNVEMQSSGMRELISASSDGEVKLWDIRMNHSLQTFSTDNSGLTSLTVHSHAPVYATGSSNQSIKIWDTLGQNINTFRENPRFLNQPKPSSLMCLKFHPHHLLLACGDNTDSRVNLYSCTKNEIHTDSPNEF
chain 2: MKEFPGLKSRNEEIRNKAANDLYEYVIAYSRELSGEALVQFNNDVNKYVYTLIHSTDPLDRLAGVTAINRLIDYEGEDTTRITRFANYLRIILPGTDQKATVLAAKALGRLAVPGGALTSEFVNFEVKRALEWLQGERNENRRYAAVLILKELAKNTSTLIYAHIDSIFELLWHGLRDPKVTIRIASADALSEFLKIVRQRDSSIRLQWYTSILNEAQRGVAQGSSDYIHGSLLVYRQLFLKAGMFMHERYREVSDIILQFRDHKDLLIRKTVTELIATLAAYNPDEFVSNYLHVCMLHLLNLLKKENVKMLAFATIGKVAVAITNSIIPYLDPICDSIKESLKIHIRNKSASDAAIFQCISLLSIALGQAFSNYAYDLFDLIFASGLSEASYRALSDLAHNIPPLLPVIQERLLDMLSKILSGRPFIPPGCPPQYVARSLKSSKSASLKTGFFPNDVYILALKVLGNFDFSGYILNEFVKDCVVVYLENNDPEVRKTASITCSQLFARDPILSQTSDHAIQVVAEVLEKLLTVGICDTVPDIRLTVLNSLDSRFNKHLAQADKIRLLFIAINDENFAVRESALRIIGRLNVYNPAYVMPYLRKIMLKTLTILDYSTIIRTKEENAKLLCLLIAAAPRLIESHVEPILQILLPKAKDSSSIVAASIVNSLGEICQISGEVIVPFIKDLMPLIIEALQDQSSPIRRAAALKALGNLSSSTGYVIDPYIEFPSLLDILIGITKTEQDITIRRETIKLIGTLGALDPNRHRVLEKGTEKVVPEQKNIPPDISLLMSGIGPSSDEYYPTVVITALMSILKDPSLTIHHTAVIQAVMYIFKTMGLRCAPFLSQIIPEFIAVMRTCPTNILEFYFQQLSILVLIVRQHIRSFLPDLFKLIKDFWNPHSNLQFTILSLIESLARAMQGEFKPYLPSLLVMMLQIFDSDVSVDSVSTKKVLHAFIVFGDTLADYFHMLLDPILRLYERNDVSIGIKESIMITIGRLSMVINLSEYASRIIHPVMRMLSCNNASLIRVSMDTVCALIYQLNVDFAIFIPMIDKCLKMNGVTHETYSILVEQFLQEQPLPIKLNPYEKYDKPKLDVVASAADITSKKLPVNQEILRNAWEASQRSTKDDWQEWIRRLGVALLRESPSHALRACAALAAAYQPLARDLFNASFVSCWSELYDHFQEELVKSIEIALTSPHISPEIIQILLNLAEFMEHDDKPLPIDIRTLGAYAAKCHAFAKALHYKELEFIEEELVTKPSVDTIEALISINNQLQQPDAAIGILKHAQQHDKMNLKETWYEKLQRWEDALSAYEKREAAGAGNFEITMGKLRCLHALGEWDRLSQLAQENWIHAGHDARRYIAPLSVAAAWGLGQWEQMDEYISVMKSESPDKAFFNAIVALHRSQFEEAASYITRARDLLDTELTALVGESYNRAYSVAVRVQMLSELEEIITYKKAEDKPEVREMIKKTWVRRLKGCQRNVDVWQRMLRIRSLVISPRDNMEMWIKFANLCRKSGRISLAKKSLNLLLEDDENLDNSLVLKKTHPSIVYANLKFLWAVDDKRKALNSMQEFTSQLISDINVDPALFVQSTSVNTQKSQEEIQYYFHLLARCYHKQGQWQQEIENNWSEGSFDGVLQSYMYATQFDSKWYKAWHSWALANFEAVKFLEQSEEQIPSAAYEQYIIPAVKGFFKSIALSKGNLQDTLRLLNLWFKFGNNSNVINTLNVGISTVNIDIWLDVIPQLIARIHASSLSVRKSVHQLLSDVGRAHPQALVYPLTVAAKSQSSARQNAALAIMDSLKTHSPRLVEQARLVSHELIRAAILWHEQWHEGLEEASRLYFGDHNIEGMFAVLRPLHEMLERGPETLREISFQQAFGRDLVEARDCCIRFEQTGDISDLNQAWDLYYQVFKKIRKQLPQLTTLDLQYVSPKLLHVHDLELAVPGTYVSGKPVIRIVKFYPTFNVITSKQRPRRLSIKGSDGKDYQYVLKGHEDIRQDERVMQLFGLCNNLLLADPETFKRLLSIQRYPVIPLSPDSGLLGWVLDSDTLHVLIRDYRESRKILLNIEHRLIIQMAPDYDRLTLLQKVEVFEYALLSTTGQDLYRVLWLKSRSSEAWLNRRTNYSRTLAVMSMVGYILGLGDRHPSNLMLDRYTGNIIHIDFGDCFEVAMHREKFPEKIPFRLTRMLVNAMEVSGIEGTFRITCEHVMRVLRTNKESVMAVLEAFVYDPLINWRLAPAYSPSIDEKQSNEPNTLLGETIDGLHRKRLNEEGITLEERQKPEILNQRAITVLNRVSNKLTGRDFKPQQQLDVPSQVEKLILQATSIENLCLCYIGWCSFW

Variants of: B1
Test: co-immunoprecipitation (anti-FLAG affinity beads) with quantified immunoblot; n=3 independent experiments; parent: 1; read off a plot

Point of comparison: chain 1 R504A, ratio to parent ~0.53. Against it:
- chain 1 Y533A — higher, ~0.9
- chain 1 R358A — lower, ~0.42
